{"source": "patent US20220323583A1", "about": "“Pharmaceutical Formulations of Bi-Specific Diabodies and Use of the Same” (MacroGenics, Inc., priority 2019, published 2022)", "molecules": {"B1": {"name": "DART-A: sequence-optimized CD123×CD3 bispecific diabody; chains SEQ ID NO:42 and SEQ ID NO:44 covalently bonded by a disulfide bond (protein)", "chain 1": "QAVVTQEPSLTVSPGGTVTLTCRSSTGAVTTSNYANWVQQKPGQAPRGLIGGTNKRAPWTPARFSGSLLGGKAALTITGAQAEDEADYYCALWYSNLWVFGGGTKLTVLGGGGSGGGGEVQLVQSGAELKKPGASVKVSCKASGYTFTDYYMKWVRQAPGQGLEWIGDIIPSNGATFYNQKFKGRVTITVDKSTSTAYMELSSLRSEDTAVYYCARSHLLRASWFAYWGQGTLVTVSSGGCGGGEVAALEKEVAALEKEVAALEKEVAALEK", "chain 2": "DFVMTQSPDSLAVSLGERVTMSCKSSQSLLNSGNQKNYLTWYQQKPGQPPKLLIYWASTRESGVPDRFSGSGSGTDFTLTISSLQAEDVAVYYCQNDYSYPYTFGQGTKLEIKGGGSGGGGEVQLVESGGGLVQPGGSLRLSCAASGFTFSTYAMNWVRQAPGKGLEWVGRIRSKYNNYATYYADSVKDRFTISRDDSKNSLYLQMNSLKTEDTAVYYCVRHGNFGNSYVSWFAYWGQGTLVTVSSGGCGGGKVAALKEKVAALKEKVAALKEKVAALKE", "modifications": "interchain disulfide bond; First Polypeptide Chain of DART-A; Second Polypeptide Chain of DART-A"}}, "key": {"[1]": {"system": "RS4-11", "assay": "Redirected killing of target cell line", "type": "cell-based"}, "[2]": {"system": "CD123+ cells", "assay": "DART-A infusion in cynomolgus monkeys", "type": "in vivo", "text": "(§1) Upregulation of granzyme B and perforin levels in both CD8 and CD4 T cells was observed.\nA decrease in circulating T cells also occurred, but recovered to baseline before the subsequent infusion in monkeys on the 4-day dose schedule, consistent with DART-A-mediated mobilization."}, "[3]": {"assay": "Sub-visible particle count, light obscuration (HIAC)", "type": "physicochemical", "conditions": "for Subvisible Particles by USP <788> ≥2 μm/mL / Subvisible Particles by USP <788> ≥10 μm/mL / Subvisible Particles by USP <788> ≥25 μm/mL: Stabilizer 2; for Particle Counts/mL ≥10 μm / Particle Counts/mL ≥25 μm: Study 1, dual-pump infusion"}, "[4]": {"system": "A498", "assay": "Redirected killing of target cell line", "type": "cell-based", "conditions": "A498 (CD123 negative)"}, "[5]": {"system": "pDCs in cynomolgus monkey PBMCs", "assay": "pDC depletion in PBMCs", "type": "cell-based", "text": "as §1"}, "[6]": {"system": "pDCs in human PBMCs", "assay": "pDC depletion in PBMCs", "type": "cell-based", "text": "as §1"}, "[7]": {"target": "Cynomolgus CD3ε/δ (Macaca fascicularis, UniProt Q95LI5)", "sequence (Q95LI5 22-117 limits assumed)": "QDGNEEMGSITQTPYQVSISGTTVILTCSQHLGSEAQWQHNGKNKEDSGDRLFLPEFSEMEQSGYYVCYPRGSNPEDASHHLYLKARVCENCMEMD", "sequence (Q95LI8 22-105 partner limits assumed)": "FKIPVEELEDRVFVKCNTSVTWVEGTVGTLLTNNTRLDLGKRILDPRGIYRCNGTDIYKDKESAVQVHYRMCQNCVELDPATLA", "assay": "Binding of DART-A to CD3 (ka, kd, KD)", "design": "species or system cynomolgus monkey"}, "[8]": {"target": "T1, Human CD123-His (Homo sapiens, UniProt P26951)", "T1 sequence (P26951 19-378)": "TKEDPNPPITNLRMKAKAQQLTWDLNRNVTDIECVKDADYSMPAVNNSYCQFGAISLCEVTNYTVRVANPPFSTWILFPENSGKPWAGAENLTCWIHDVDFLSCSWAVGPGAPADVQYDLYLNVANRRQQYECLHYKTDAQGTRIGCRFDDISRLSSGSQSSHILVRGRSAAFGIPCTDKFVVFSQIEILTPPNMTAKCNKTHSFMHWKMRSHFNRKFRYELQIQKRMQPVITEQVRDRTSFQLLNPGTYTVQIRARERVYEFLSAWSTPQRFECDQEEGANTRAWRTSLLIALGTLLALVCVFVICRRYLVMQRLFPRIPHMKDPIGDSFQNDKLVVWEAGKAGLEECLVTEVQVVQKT", "assay": "Binding of DART-A to CD123 (ka, kd, KD)"}, "[9]": {"conditions": "10 ng/mL dosing solution, Post Infusion (Infusion Time = 48 Hrs)"}, "[10]": {"conditions": "10 ng/mL dosing solution, Post Storage (T = 72 Hrs), room temperature"}, "[11]": {"conditions": "10 ng/mL dosing solution, T = 0"}, "[12]": {"conditions": "20 ng/mL dosing solution, Post Infusion (Infusion Time = 96 Hrs)"}, "[13]": {"conditions": "20 ng/mL dosing solution, Post Storage (T =72 Hrs), room temperature"}, "[14]": {"conditions": "20 ng/mL dosing solution, T = 0"}, "[15]": {"conditions": "1250 ng/mL dosing solution, Post Infusion (Infusion Time = 48 Hrs)"}, "[16]": {"conditions": "1250 ng/mL dosing solution, Post Storage (T = 72 Hrs), room temperature"}, "[17]": {"conditions": "1250 ng/mL dosing solution, T = 0"}, "[18]": {"conditions": "High (5000 ng/mL), T = 24 hours"}, "[19]": {"conditions": "High (5000 ng/mL), T = 48 hours"}, "[20]": {"conditions": "High (5000 ng/mL), T = 72 hours"}}}
{"molecule": "B1", "values": [{"measurement": "Max % Killing", "setting": "[1]", "value": 60, "unit": "%"}, {"measurement": "levels of cytokines interferon-gamma, TNF-alpha, IL-6, IL-5, IL-4 and IL-2", "setting": "[2]; DART-A-treated animals", "value": "No elevation"}, {"measurement": "pDC depletion after infusion", "setting": "[2]; as little as 10 ng/kg DART-A", "value": "depleted as early as 4 days post infusion"}, {"measurement": "circulating CD123+ cells", "setting": "[2]; infused 4 or 7 days a week, weekly escalating doses", "value": "depletion of circulating CD123+ cells 72 h after treatment initiation"}, {"measurement": "Toxicity", "setting": "[2]; infused 4 or 7 days a week, weekly escalating doses, 4 weeks", "value": "limited to a minimal transient release of cytokines"}, {"measurement": "Subvisible Particles by USP <788> ≥2 μm/mL", "setting": "[3]; [9]", "value": 140, "unit": "mL⁻¹"}, {"measurement": "Subvisible Particles by USP <788> ≥10 μm/mL", "setting": "[3]; [9]", "value": 2, "unit": "mL⁻¹"}, {"measurement": "Subvisible Particles by USP <788> ≥25 μm/mL", "setting": "[3]; [9]", "value": 1, "unit": "mL⁻¹"}, {"measurement": "Subvisible Particles by USP <788> ≥2 μm/mL", "setting": "[3]; [10]", "value": 192, "unit": "mL⁻¹"}, {"measurement": "Subvisible Particles by USP <788> ≥10 μm/mL", "setting": "[3]; [10]", "value": 10, "unit": "mL⁻¹"}, {"measurement": "Subvisible Particles by USP <788> ≥25 μm/mL", "setting": "[3]; [10]", "value": 1, "unit": "mL⁻¹"}, {"measurement": "Subvisible Particles by USP <788> ≥2 μm/mL", "setting": "[3]; [11]", "value": 206, "unit": "mL⁻¹"}, {"measurement": "Subvisible Particles by USP <788> ≥10 μm/mL", "setting": "[3]; [11]", "value": 7, "unit": "mL⁻¹"}, {"measurement": "Subvisible Particles by USP <788> ≥25 μm/mL", "setting": "[3]; [11]", "value": 1, "unit": "mL⁻¹"}, {"measurement": "Subvisible Particles by USP <788> ≥2 μm/mL", "setting": "[3]; [12]", "value": 85, "unit": "mL⁻¹"}, {"measurement": "Subvisible Particles by USP <788> ≥10 μm/mL", "setting": "[3]; [12]", "value": 9, "unit": "mL⁻¹"}, {"measurement": "Subvisible Particles by USP <788> ≥25 μm/mL", "setting": "[3]; [12]", "value": 3, "unit": "mL⁻¹"}, {"measurement": "Subvisible Particles by USP <788> ≥2 μm/mL", "setting": "[3]; [13]", "value": 412, "unit": "mL⁻¹"}, {"measurement": "Subvisible Particles by USP <788> ≥10 μm/mL", "setting": "[3]; [13]", "value": 8, "unit": "mL⁻¹"}, {"measurement": "Subvisible Particles by USP <788> ≥25 μm/mL", "setting": "[3]; [13]", "value": 0, "unit": "mL⁻¹"}, {"measurement": "Subvisible Particles by USP <788> ≥2 μm/mL", "setting": "[3]; [14]", "value": 344, "unit": "mL⁻¹"}, {"measurement": "Subvisible Particles by USP <788> ≥10 μm/mL", "setting": "[3]; [14]", "value": 8, "unit": "mL⁻¹"}, {"measurement": "Subvisible Particles by USP <788> ≥25 μm/mL", "setting": "[3]; [14]", "value": 0, "unit": "mL⁻¹"}, {"measurement": "Subvisible Particles by USP <788> ≥2 μm/mL", "setting": "[3]; [15]", "value": 188, "unit": "mL⁻¹"}, {"measurement": "Subvisible Particles by USP <788> ≥10 μm/mL", "setting": "[3]; [15]", "value": 4, "unit": "mL⁻¹"}, {"measurement": "Subvisible Particles by USP <788> ≥25 μm/mL", "setting": "[3]; [15]", "value": 1, "unit": "mL⁻¹"}, {"measurement": "Subvisible Particles by USP <788> ≥2 μm/mL", "setting": "[3]; [16]", "value": 146, "unit": "mL⁻¹"}, {"measurement": "Subvisible Particles by USP <788> ≥10 μm/mL", "setting": "[3]; [16]", "value": 7, "unit": "mL⁻¹"}, {"measurement": "Subvisible Particles by USP <788> ≥25 μm/mL", "setting": "[3]; [16]", "value": 1, "unit": "mL⁻¹"}, {"measurement": "Subvisible Particles by USP <788> ≥2 μm/mL", "setting": "[3]; [17]", "value": 664, "unit": "mL⁻¹"}, {"measurement": "Subvisible Particles by USP <788> ≥10 μm/mL", "setting": "[3]; [17]", "value": 21, "unit": "mL⁻¹"}, {"measurement": "Subvisible Particles by USP <788> ≥25 μm/mL", "setting": "[3]; [17]", "value": 1, "unit": "mL⁻¹"}, {"measurement": "subvisible particle counts ≥2 μm, ≥10 μm and ≥25 μm post-infusion vs T=0", "setting": "[3]; Stabilizer 2 dosing solutions", "value": "did not increase"}, {"measurement": "Particle Counts/mL ≥10 μm", "setting": "[3]; High (5000 ng/mL), T = 0", "value": 14, "unit": "Counts/mL"}, {"measurement": "Particle Counts/mL ≥25 μm", "setting": "[3]; High (5000 ng/mL), T = 0", "value": 1, "unit": "Counts/mL"}, {"measurement": "Particle Counts/mL ≥10 μm", "setting": "[3]; [18]", "value": 2, "unit": "Counts/mL"}, {"measurement": "Particle Counts/mL ≥25 μm", "setting": "[3]; [18]", "value": 1, "unit": "Counts/mL"}, {"measurement": "Particle Counts/mL ≥10 μm", "setting": "[3]; [19]", "value": 0, "unit": "Counts/mL"}, {"measurement": "Particle Counts/mL ≥25 μm", "setting": "[3]; [19]", "value": 0, "unit": "Counts/mL"}, {"measurement": "Particle Counts/mL ≥10 μm", "setting": "[3]; [20]", "value": 0, "unit": "Counts/mL"}, {"measurement": "Particle Counts/mL ≥25 μm", "setting": "[3]; [20]", "value": 0, "unit": "Counts/mL"}, {"measurement": "Particle Counts/mL ≥10 μm", "setting": "[3]; Low (100 ng/mL), T = 0", "value": 5, "unit": "Counts/mL"}, {"measurement": "Particle Counts/mL ≥25 μm", "setting": "[3]; Low (100 ng/mL), T = 0", "value": 0, "unit": "Counts/mL"}, {"measurement": "Particle Counts/mL ≥10 μm", "setting": "[3]; Low (100 ng/mL), T = 24 hours", "value": 4, "unit": "Counts/mL"}, {"measurement": "Particle Counts/mL ≥25 μm", "setting": "[3]; Low (100 ng/mL), T = 24 hours", "value": 1, "unit": "Counts/mL"}, {"measurement": "Particle Counts/mL ≥10 μm", "setting": "[3]; Low (100 ng/mL), T = 48 hours", "value": 7, "unit": "Counts/mL"}, {"measurement": "Particle Counts/mL ≥25 μm", "setting": "[3]; Low (100 ng/mL), T = 48 hours", "value": 0, "unit": "Counts/mL"}, {"measurement": "Particle Counts/mL ≥10 μm", "setting": "[3]; Low (100 ng/mL), T = 72 hours", "value": 1, "unit": "Counts/mL"}, {"measurement": "Particle Counts/mL ≥25 μm", "setting": "[3]; Low (100 ng/mL), T = 72 hours", "value": 0, "unit": "Counts/mL"}, {"measurement": "Max % Killing", "setting": "[4]", "value": "No activity"}, {"measurement": "EC50, redirected killing", "setting": "[4]; E:T = 10:1", "value": "No activity"}, {"measurement": "depletion of pDCs", "setting": "[5]", "value": "capable of mediating the depletion of pDCs cells"}, {"measurement": "depletion of pDCs", "setting": "[6]", "value": "capable of mediating the depletion of pDCs cells"}, {"measurement": "ka (± SD)", "setting": "[7]", "value": "5.5 (± 0.5) × 10^5 M^−1s^−1"}, {"measurement": "kd (± SD)", "setting": "[7]", "value": "5.0 (± 0.9) × 10^−3 s^−1"}, {"measurement": "Kd", "setting": "[7]; read-out: KD (± SD)", "value": "9.2 ± 2.3", "unit": "nM"}, {"measurement": "ka (± SD)", "setting": "[8]", "value": "1.6 (± 0.4) × 10^6 M^−1s^−1"}, {"measurement": "kd (± SD)", "setting": "[8]", "value": "1.9 (± 0.4) × 10^−4 s^−1"}]}
